Test results published in patent US5739278A, “Compositions for protein tyrosine phosphatases” (University of Washington, priority 1995, dated 1998).
Where no end group is shown, it is not given here. [ ]: non-standard residue; d: D form. pY = N[C@@H](Cc1ccc(OP(=O)(O)O)cc1)C(=O)O

Legend:
Assay in all cases: Phosphatase assay with ENDY(P)INASL as substrate
Type in all cases: biochemical
CD45 = target: T1, CD45 (Homo sapiens, UniProt P08575)
T1 construct: CD45 were purified from placenta and spleen, respectively; from tissue; host or cells: spleen
T1 sequence (P08575 26-1306): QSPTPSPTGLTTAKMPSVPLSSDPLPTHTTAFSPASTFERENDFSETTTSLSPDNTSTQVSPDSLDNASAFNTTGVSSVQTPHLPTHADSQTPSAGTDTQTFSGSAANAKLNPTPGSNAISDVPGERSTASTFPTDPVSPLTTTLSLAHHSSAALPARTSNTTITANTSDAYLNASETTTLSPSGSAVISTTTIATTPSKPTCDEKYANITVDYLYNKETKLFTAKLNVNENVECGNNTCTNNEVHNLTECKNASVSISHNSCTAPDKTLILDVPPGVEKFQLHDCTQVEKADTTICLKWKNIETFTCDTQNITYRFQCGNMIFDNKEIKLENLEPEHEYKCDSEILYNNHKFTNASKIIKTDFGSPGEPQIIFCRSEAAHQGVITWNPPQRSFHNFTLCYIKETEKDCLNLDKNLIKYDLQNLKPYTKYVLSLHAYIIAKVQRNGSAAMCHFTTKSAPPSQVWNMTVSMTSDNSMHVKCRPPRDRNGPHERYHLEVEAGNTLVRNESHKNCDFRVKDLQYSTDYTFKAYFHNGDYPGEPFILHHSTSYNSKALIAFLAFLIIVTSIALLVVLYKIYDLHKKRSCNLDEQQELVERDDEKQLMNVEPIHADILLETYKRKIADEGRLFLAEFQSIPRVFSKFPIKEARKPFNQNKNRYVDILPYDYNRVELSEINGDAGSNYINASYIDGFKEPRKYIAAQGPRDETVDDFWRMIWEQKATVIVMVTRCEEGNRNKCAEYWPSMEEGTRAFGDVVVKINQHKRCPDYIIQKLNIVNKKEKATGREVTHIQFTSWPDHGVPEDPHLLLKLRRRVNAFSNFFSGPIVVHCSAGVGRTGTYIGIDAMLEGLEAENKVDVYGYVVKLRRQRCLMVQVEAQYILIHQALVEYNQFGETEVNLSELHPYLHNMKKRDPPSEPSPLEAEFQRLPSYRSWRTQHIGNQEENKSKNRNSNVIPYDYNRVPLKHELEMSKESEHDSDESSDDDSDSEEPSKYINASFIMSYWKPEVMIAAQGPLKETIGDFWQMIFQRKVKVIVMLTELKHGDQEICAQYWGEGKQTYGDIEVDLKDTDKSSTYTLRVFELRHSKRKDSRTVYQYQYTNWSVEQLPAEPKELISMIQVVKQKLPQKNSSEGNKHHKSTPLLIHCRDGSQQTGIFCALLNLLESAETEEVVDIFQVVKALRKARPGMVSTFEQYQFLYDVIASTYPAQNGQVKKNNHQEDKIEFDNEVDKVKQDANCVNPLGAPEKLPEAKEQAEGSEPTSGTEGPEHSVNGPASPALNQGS
Method: (§1) The tyrosine phosphatases TC.PTP, TCΔC11.PTP, and RPTPα were purified from infected Sf9 cells as described recently (Zander et al., Biochemistry 30: 6964-6970, 1991; Daum et al., J. Biol. Chem. 266: 12211-12215, 1991). The 37 kDa form of PTP1B and CD45 were purified from placenta and spleen, respectively (according to Tonks et al., J. Biol. Chem. 263: 6722-6730, 1988; Tonks et al., Biochemistry 27: 8695-8701, 1988).
(§2) Phosphatase assays with ENDY(P)INASL were performed in buffer M6. Aliquots of 30 μl or 60 μl containing the phosphopeptide, the phosphatase (-beads) and effectors were incubated for 10 minutes at 30° C. The reaction was stopped by adding 200 μl of a suspension of 10% activated, acid-washed Norit A charcoal (v/v) in 0.9N HCl, 0.1M pyrophosphate and 2 mM NaH2 PO4 (according to Streuli et al., Proc. Natl. Acad. Sci. USA 86: 8698-8702, 1989). The mixture was cleared by 10-minute centrifugation and the radioactivity of 150 μl of the supernate was determined. Assays with MBP and RCML were performed as described in Tonks et al., J. Biol. Chem. 263: 6722-6730, 1988. Protein concentration was determined with BSA as standard (Bradford, Anal. Biochem. 72: 248-254, 1976).

RPTPα = target: T2, RPTPα (Homo sapiens, UniProt P18433)
T2 construct: made in house; host or cells: Sf9 cells (baculovirus)
Method: as §1, §2

TC.PTP = target: T3, TC.PTP (Homo sapiens, UniProt P17706); settings: TC20
T3 construct: made in house; host or cells: Sf9 cells (baculovirus)
T3 sequence (P17706 1-415): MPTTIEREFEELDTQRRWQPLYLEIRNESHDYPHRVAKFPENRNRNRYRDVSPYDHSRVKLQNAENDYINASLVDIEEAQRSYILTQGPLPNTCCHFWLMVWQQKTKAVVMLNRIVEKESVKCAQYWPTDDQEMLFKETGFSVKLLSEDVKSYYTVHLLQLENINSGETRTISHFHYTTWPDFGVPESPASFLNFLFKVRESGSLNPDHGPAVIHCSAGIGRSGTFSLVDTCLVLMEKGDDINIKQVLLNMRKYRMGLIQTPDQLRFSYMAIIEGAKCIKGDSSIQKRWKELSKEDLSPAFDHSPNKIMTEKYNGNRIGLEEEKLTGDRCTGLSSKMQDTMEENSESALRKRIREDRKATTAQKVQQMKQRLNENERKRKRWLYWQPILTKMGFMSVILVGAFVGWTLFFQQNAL
Method: as §1, §2

TCΔC11.PTP = target: T4, TCΔC11.PTP (Homo sapiens, UniProt P17706)
T4 construct: both the wild type and truncated forms of the T-cell phosphatase; made in house; host or cells: Sf9 cells (baculovirus)
T4 sequence (P17706 1-317 limits assumed): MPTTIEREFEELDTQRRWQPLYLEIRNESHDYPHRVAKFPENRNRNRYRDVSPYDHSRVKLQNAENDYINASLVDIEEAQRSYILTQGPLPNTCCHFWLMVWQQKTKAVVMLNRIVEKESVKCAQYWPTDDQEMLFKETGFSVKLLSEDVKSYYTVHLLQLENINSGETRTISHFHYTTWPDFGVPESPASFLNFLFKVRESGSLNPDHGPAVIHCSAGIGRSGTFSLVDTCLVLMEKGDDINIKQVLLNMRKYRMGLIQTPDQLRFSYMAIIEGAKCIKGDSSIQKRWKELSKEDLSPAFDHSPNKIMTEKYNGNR
Method: as §1, §2

[1] = non-linear regression of substrate saturation curves, mean of two experiments
[2] = one unit = release of 1 nmol phosphate per minute

T2 sequence (P18433 20-802): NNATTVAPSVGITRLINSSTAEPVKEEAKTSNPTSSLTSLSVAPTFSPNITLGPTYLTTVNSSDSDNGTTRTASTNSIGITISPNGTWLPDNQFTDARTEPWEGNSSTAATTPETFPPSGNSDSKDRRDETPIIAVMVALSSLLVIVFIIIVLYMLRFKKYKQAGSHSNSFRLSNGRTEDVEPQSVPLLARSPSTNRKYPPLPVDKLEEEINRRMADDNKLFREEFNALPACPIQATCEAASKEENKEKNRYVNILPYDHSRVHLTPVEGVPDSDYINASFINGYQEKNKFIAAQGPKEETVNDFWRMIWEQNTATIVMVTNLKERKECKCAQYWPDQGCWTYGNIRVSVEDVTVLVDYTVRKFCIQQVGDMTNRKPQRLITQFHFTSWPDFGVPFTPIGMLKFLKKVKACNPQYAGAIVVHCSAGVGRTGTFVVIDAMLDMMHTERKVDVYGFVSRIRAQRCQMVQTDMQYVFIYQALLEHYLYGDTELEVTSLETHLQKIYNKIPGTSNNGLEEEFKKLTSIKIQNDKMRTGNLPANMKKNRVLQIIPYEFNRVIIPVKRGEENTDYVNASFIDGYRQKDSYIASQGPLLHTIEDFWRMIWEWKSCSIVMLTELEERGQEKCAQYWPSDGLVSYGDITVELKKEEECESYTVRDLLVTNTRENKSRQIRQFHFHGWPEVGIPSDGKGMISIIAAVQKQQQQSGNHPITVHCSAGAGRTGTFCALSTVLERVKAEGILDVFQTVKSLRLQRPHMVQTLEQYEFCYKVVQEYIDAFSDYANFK

With “ENDY(P)INASL: ENDYINASL phosphorylated on its tyrosine residue (32P), used as PTP substrate (END[pY]INASL; also: phosphate 32P-labelled)” the Km (CD45; [1]) was 13.8 ± 0.28 µM, the Vmax (CD45; [2]) was 1622 +/- 23 U/mg and the Km (RPTPα; [1]) was 32.5 ± 3.06 µM. The Vmax (RPTPα; [2]) was 1038 +/- 88 U/mg, the Km (TC.PTP; [1]) was 1.13 ± 0.14 µM and the Vmax (TC.PTP; [2]) was 14221 +/- 7104 U/mg. The Km (TCΔC11.PTP; [1]) was 1 ± 0.4 µM and the Vmax (TCΔC11.PTP; [2]) was 13374 +/- 970 U/mg.
